These are literature values, as cited in patent publication US12628856B2, “Nutritional composition having lipophilic compounds with improved solubility and bioavailability” (Abbott Laboratories, priority 2013, dated 2026).

The conditions of the series: Kd Source: Published; read-out: Lutein Kd.

B1: StARD3: reference protein with published lutein Kd (protein, UniProt Q14849 1-445, looked up)
StAR-related lipid transfer …: MSKLPRELTRDLERSLPAVASLGSSLSHSQSLSSHLLPPPEKRRAISDVRRTFCLFVTFDLLFISLLWIIELNTNTGIRKNLEQEIIQYNFKTSFFDIFVLAFFRFSGLLLGYAVLRLRHWWVIAVTTLVSSAFLIVKVILSELLSKGAFGYLLPIVSFVLAWLETWFLDFKVLPQEAEEERWYLAAQVAVARGPLLFSGALSEGQFYSPPESFAGSDNESDEEVAGKKSFSAQEREYIRQGKEATAVVDQILAQEENWKFEKNNEYGDTVYTIEVPFHGKTFILKTFLPCPAELVYQEVILQPERMVLWNKTVTACQILQRVEDNTLISYDVSAGAAGGVVSPRDFVNVRRIERRRDRYLSSGIATSHSAKPPTHKYVRGENGPGGFIVLKSASNPRVCTFVWILNTDLKGRLPRYLIHQSLAATMFEFAFHLRQRISELGARA
In general, Kd refers to the constant that tells how readily two partners part at equilibrium. Regarding B1, the equilibrium dissociation constant (Kd) was 450 nM.

B2: GSTP1: reference protein with published lutein Kd (protein, UniProt P09211 2-210, looked up)
Glutathione S-transferase P: PPYTVVYFPVRGRCAALRMLLADQGQSWKEEVVTVETWQEGSLKASCLYGQLPKFQDGDLTLYQSNTILRHLGRTLGLYGKDQQEAALVDMVNDGVEDLRCKYISLIYTNYEAGKDDYVKALPGQLKPFETLLSQNQGGKTFIVGDQISFADYNLLDLLLIHEVLAPGCLDAFPLLSAYVGRLSARPKLKAFLASPEYVNLPINGNGKQ
For the molecule B2, the Kd is 1350 nM.
